Positions count from the first letter of the chain named. Read-outs that look alike come from different tables or passages of the source.
Assays:
[1] = molecular target: T1, Tnp26 WT (IS26 (bacterial insertion sequence; …, UniProt A0A2K9V0L7 1-234, G117R); assay: EMSA
T1 sequence: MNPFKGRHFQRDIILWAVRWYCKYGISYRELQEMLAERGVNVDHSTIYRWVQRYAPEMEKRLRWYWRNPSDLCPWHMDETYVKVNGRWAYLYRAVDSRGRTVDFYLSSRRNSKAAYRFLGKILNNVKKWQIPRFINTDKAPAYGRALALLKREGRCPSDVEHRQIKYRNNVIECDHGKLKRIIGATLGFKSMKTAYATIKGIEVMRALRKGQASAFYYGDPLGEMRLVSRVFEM

[2] = molecular target: T2, Tnp26 W50A (IS26 (bacterial insertion sequence; …, UniProt A0A2K9V0L7 1-234, W50A;G117R); assay: EMSA
T2 sequence: T1 sequence with W50A

[3] = molecular target: T1, Tnp26 WT; assay: EMSA; remark: listed apart in the source
[4] = molecular target: T3, Tnp26 R49A (IS26 (bacterial insertion sequence; …, UniProt A0A2K9V0L7 1-234, R49A;G117R); assay: EMSA
T3 sequence: T1 sequence with R49A

[5] = molecular target: T4, Tnp26 F9A (IS26 (bacterial insertion sequence; …, UniProt A0A2K9V0L7 1-234, F9A;G117R); assay: EMSA
T4 sequence: T1 sequence with F9A

[6] = molecular target: T5, Tnp26 F4A (IS26 (bacterial insertion sequence; …, UniProt A0A2K9V0L7 1-234, F4A;G117R); assay: EMSA
T5 sequence: T1 sequence with F4A

[7] = molecular target: T6, Tnp26 1-56 (IS26 (bacterial insertion sequence; …, UniProt A0A2K9V0L7 1-56); assay: EMSA
T6 sequence: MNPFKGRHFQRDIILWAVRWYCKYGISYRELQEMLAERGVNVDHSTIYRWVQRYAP

[8] = molecular target: T1, Tnp26 WT; assay: MST
[9] = molecular target: T6, Tnp26 1-56; assay: EMSA; remark: listed apart in the source
[10] = molecular target: T7, Tnp26 Y54A (IS26 (bacterial insertion sequence; …, UniProt A0A2K9V0L7 1-234, Y54A;G117R); assay: MST
T7 sequence: T1 sequence with Y54A

B1: TIRR 25mer (dsDNA)
DNA 1: TCAGATCGATGGCACTGTTGCAAAG
DNA 2: CTTTGCAACAGTGCCATCGATCTGA
B1: no binding [1].

B2: Scrambled TIRR (dsDNA)
DNA 1: TTCGTGACTACATCGATCTAGGCTAGCTAGTCAGCTGATCGACTAGCGAT
DNA 2: ATCGCTAGTCGATCAGCTGACTAGCTAGCCTAGATCGATGTAGTCACGAA
B2: no binding [2]; no binding [3]; no binding [4]. B2: no binding [5]; no binding [6]; no binding [7].

B3: TIRR 50mer (dsDNA)
DNA 1: TCAGATCGATGGCACTGTTGCAAAGTTAGCGATGAGGCAGCCTTTTGTCT
DNA 2: AGACAAAAGGCTGCCTCATCGCTAACTTTGCAACAGTGCCATCGATCTGA
B3: no binding [2]; no binding [4]; no binding [5]. The binding result [6] was “no binding” and the Kd [8] was 394 nM.

B4: TIRR 1G>T 2G>T (dsDNA)
DNA 1: B3 DNA 1 with G11T, G12T
DNA 2: B3 DNA 2 with C39A, C40A
For B4, the Kd [8] was 240 nM.

B5: TIRR 7G>T (dsDNA)
DNA 1: B3 DNA 1 with G17T
DNA 2: B3 DNA 2 with C34A
B5: no binding [9]; no binding [3].

B6: TIRR 10G>T (dsDNA)
DNA 1: B3 DNA 1 with G20T
DNA 2: B3 DNA 2 with C31A
In the case of B6, the Kd [8] is reported as 872 nM.

B7: TIRL 50mer (dsDNA)
DNA 1: TCAGATCGATGGCACTGTTGCAAATAGTCGGTGGTGATAAACTTATCATC
DNA 2: GATGATAAGTTTATCACCACCGACTATTTGCAACAGTGCCATCGATCTGA
B7: no binding [2]; no binding [4]; no binding [5]. For the same binder, the binding result [6] was “no binding” and the Kd [10] was 802 nM.

Source: paper PMC8477213
